± gives the uncertainty stated by the source.

This series can be described thus: self-splicing fitness, log relative to wild type (ln ratio); higher = more splicing; Tetrahymena group I intron in knt gene, E. coli kanamycin selection, DiMSum; sequences stand for … in CUCUCU…GGAGGGAAAAGUUAUCAGGCAUGCACCUGGUAGCUAGUCUUUAAACCAAUAGAUUGCAUCGGUUUAAAAGGCAAGACCGUCAAAUUGCGGGAAAGGGGUCAACAGCCGUUCAGUACCAAGUCUCAGGGGAAACUUUGAGAUGGCCUUGCAAAGGGUAUGGUAAUAAGCUGACGGACAUGGUCCUAACCACGCAGCCAAGUCCUAAGUCAACAGAUCUUCUGUUGAUAUGGAUGCAGUUCACAGACUAAAUGUCGGUCGGGGAAGAUGUAUUCUUCUCAUAAGAUAUAGUCGGACCUCUCCUUAAUGGGAGCUAGCGGAUGAAGUGAUGCAACACUGGAGCCGCUGGGAACUAAUUUGUAUGCGAAAGUAUAUUGAUUAGUUUUGGAGUACUCGUGGUCG
In a few lines: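 Fitness was computed with DiMSum as the error-weighted combination of replicate fold changes, kanamycin versus none, each normalised to wild type. The library randomised all eight intron nucleotides of the P1ex region, with the intron placed in the knt kanamycin-resistance gene on pET-22b(+) in E. coli BL21(DE3). Six replicate transformations were grown overnight at 37°C or 30°C on LB agar with or without 25 μg/mL kanamycin, plus 100 μg/mL carbenicillin, 50 μM IPTG and 0.2% rhamnose. Pooled colonies were amplicon-sequenced on an Illumina HiSeq 2500.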

Regarding UUAUAGCAAUAUUACGCGGA, the “self-splicing fitness (ln)” value was -1.6 ± 0.12 (30 °C) and -0.96 ± 0.14 (37 °C). For UUAUAGCAAUAUUACGCUAG, the “self-splicing fitness (ln)” value runs as follows: (30 °C) -1.92 ± 0.2; (37 °C) -0.0618 ± 0.24.

In the case of UUAUAGCAAUAUUACGCUUG, the “self-splicing fitness (ln)” value is, setting by setting: (30 °C) -1.46 ± 0.19; (37 °C) -0.162 ± 0.22.

As to UUAUAGCAAUAUUACGGAAA, the “self-splicing fitness (ln)” value (30 °C) was -2.13 ± 0.22 and the “self-splicing fitness (ln)” value (37 °C) was -1.67 ± 0.23. Take UUAUAGCAAUAUUACGGAAU: where the note is “30 °C”, the “self-splicing fitness (ln)” value was -3.67 ± 0.36.

Turning to UUAUAGCAAUAUUACGGCCC, the “self-splicing fitness (ln)” value (37 °C) is -0.921 ± 0.39. For UUAUAGCAAUAUUACGGUUC, the “self-splicing fitness (ln)” value reads like this: (30 °C) -2.77 ± 0.23; (37 °C) -2.16 ± 0.25.

As for UUAUAGCAAUAUUACGUAAA, the “self-splicing fitness (ln)” value is, setting by setting: (30 °C) -1.34 ± 0.19; (37 °C) -1.58 ± 0.22.

Take UUAUAGCAAUAUUACGUCUG: the “self-splicing fitness (ln)” value reads like this: (30 °C) -0.366 ± 0.11; (37 °C) -0.511 ± 0.13. The like results for UUAUAGCAAUAUUACGUUUC were, in that order, -4.48 ± 0.3 and -3.31 ± 0.32. In the case of UUCAAGCAAUAUUACGACAA, the “self-splicing fitness (ln)” value (30 °C) was found to be 0.0996 ± 0.083 and the “self-splicing fitness (ln)” value (37 °C) was -0.304 ± 0.085. As to UUCAAGCAAUAUUACGACGG, the “self-splicing fitness (ln)” value (30 °C) was -1.5 ± 0.11 and the “self-splicing fitness (ln)” value (37 °C) is -0.143 ± 0.12. UUCAAGCAAUAUUACGAUUU: the “self-splicing fitness (ln)” value by setting is: (30 °C) -3.24 ± 0.21; (37 °C) -1.12 ± 0.17. The like results for UUCAAGCAAUAUUACGCAAG were, in that order, -2.1 ± 0.2 and -0.676 ± 0.17.

For the sequence UUCAAGCAAUAUUACGCCAA, the “self-splicing fitness (ln)” value by setting is: (30 °C) -0.664 ± 0.11; (37 °C) -0.538 ± 0.11. Taken in the same sequence, the figures for UUCAAGCAAUAUUACGCCAU were -3.57 ± 0.4 and -2.88 ± 0.43. The like results for UUCAAGCAAUAUUACGCCGG were, in that order, -0.231 ± 0.097 and -0.469 ± 0.13. UUCAAGCAAUAUUACGCGAG: the “self-splicing fitness (ln)” value is, setting by setting: (30 °C) -2.19 ± 0.096; (37 °C) -1.33 ± 0.1. Taken in the same sequence, the figures for UUCAAGCAAUAUUACGCGGG were -3.35 ± 0.28 and -1.95 ± 0.21. The like results for UUCAAGCAAUAUUACGCUGA were, in that order, -2.5 ± 0.16 and -2.33 ± 0.21. Taken in the same sequence, the figures for UUCAAGCAAUAUUACGCUGU were -2.98 ± 0.17 and -1.19 ± 0.14. As for UUCAAGCAAUAUUACGGACG, the “self-splicing fitness (ln)” value was -1.48 ± 0.15 (30 °C) and -0.868 ± 0.18 (37 °C). Taken in the same sequence, the figures for UUCAAGCAAUAUUACGGGUA were -0.67 ± 0.085 and -0.182 ± 0.08. The like results for UUCAAGCAAUAUUACGGUGA were, in that order, -0.763 ± 0.093 and 0.168 ± 0.092. Take UUCAAGCAAUAUUACGUGUA: the “self-splicing fitness (ln)” value reads like this: (30 °C) -1.11 ± 0.056; (37 °C) -0.453 ± 0.059.

Consider UUCAAGCAAUAUUACGUGUG, for which the “self-splicing fitness (ln)” value runs as follows: (30 °C) -1.25 ± 0.056; (37 °C) -0.551 ± 0.07. The like results for UUCAAGCAAUAUUACGUGUU were, in that order, -3.23 ± 0.13 and -1.72 ± 0.11. Regarding UUCAAGCAAUAUUACGUUGC, the “self-splicing fitness (ln)” value (37 °C) was -3.55 ± 0.46. UUCAAGCAAUAUUACGUUUA: the “self-splicing fitness (ln)” value was -1.49 ± 0.087 (30 °C) and -0.461 ± 0.082 (37 °C). On to UUCCAGCAAUAUUACGAACA, for which the “self-splicing fitness (ln)” value reads like this: (30 °C) -1.42 ± 0.21; (37 °C) -0.887 ± 0.17.

Consider UUCCAGCAAUAUUACGACAA, for which the “self-splicing fitness (ln)” value (30 °C) was -0.945 ± 0.13 and the “self-splicing fitness (ln)” value (37 °C) was 0.128 ± 0.16. As for UUCCAGCAAUAUUACGACAU, the “self-splicing fitness (ln)” value is -2.874 ± 0.018 (30 °C) and -1.61 ± 0.035 (37 °C). Regarding UUCCAGCAAUAUUACGAGAA, the “self-splicing fitness (ln)” value by setting is: (30 °C) -1.79 ± 0.17; (37 °C) -0.442 ± 0.16. Taken in the same sequence, the figures for UUCCAGCAAUAUUACGAGGU were -1.96 ± 0.17 and -1.87 ± 0.16.

For the origin of these results see the supplement of paper PMC7877785.
